Test results reported in publication PMC6406557, “Lysozyme Aptamer-Functionalized Magnetic Nanoparticles for the Purification of Lysozyme from Chicken Egg White”.

Tests used:
[1] = biological target: lysozyme from egg white (chicken, UniProt P00698 19-147); assay: pull-down from egg white on aptamer-functionalized magnetic nanoparticles, SDS-PAGE; 113 +/- 4.2 mg/g from egg white; Adsorption optimum: 4.0 mg/mL lysozyme, 60 min, pH 9.0, 37 C, 0 M NaCl; egg white: mixed 1:1 with 20 mM PBS pH 7.2-8.0, 10 mg NPs per mL, 37 C, 60 min; conditions: protein: native
Sequence of lysozyme from egg white (P00698 19-147): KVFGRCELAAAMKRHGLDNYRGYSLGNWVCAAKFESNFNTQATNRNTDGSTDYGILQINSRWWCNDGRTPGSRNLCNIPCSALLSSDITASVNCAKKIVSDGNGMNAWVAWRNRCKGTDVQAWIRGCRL

[2] = biological target: lysozyme (chicken (Gallus gallus)?, UniProt P00698 19-147); assay: pull-down on aptamer-functionalized magnetic nanoparticles (adsorption, A280); capacity 460 +/- 3.4 mg/g at pH 9.0, 37 C, 0 M NaCl; bare Fe3O4 218.39 and NH2-Fe3O4 211.35 mg/g, so part is non-aptamer adsorption; Adsorption optimum: 4.0 mg/mL lysozyme, 60 min, pH 9.0, 37 C, 0 M NaCl; egg white: mixed 1:1 with 20 mM PBS pH 7.2-8.0, 10 mg NPs per mL, 37 C, 60 min; conditions: protein: commercial
Sequence of lysozyme (P00698 19-147): as above

Binder: TTTTTTATCAGGGCTAAAGAGTGC (ssDNA, 5'-aldehyde, coupled as imine to NH2-Fe3O4 nanoparticles) [lysozyme aptamer]
- binding result [1]: binds
- binding result [2]: binds
